Laboratory results taken from article PMC2824085, “Identification of Novel Contributions to High-affinity Glycoprotein–Receptor Interactions using Engineered Ligands” (Journal of Molecular Biology, 2010).

Legend:
[1] = molecular target: the molecule itself; assay: cross-linking + SEC; chemical crosslinking and gel filtration of the extracellular domain of MGL expressed in bacteria
soybean agglutinin = molecular target: T1, soybean agglutinin (soybean, UniProt P05046 33-285, a single, uniform Man9GlcNAc2 oligosaccharide on each subunit); assay: SPR; BiaCore 3000, CM5 chip; SBA or its glycopeptide amine-coupled, monomeric CRD of DC-SIGN flowed over; steady state, simple saturation model with linear background; 10 mM Hepes, 150 mM NaCl, 5 mM CaCl2, 0.005% P20, pH 7.4, 25 °C; conditions: both partners purified
T1 construct: also called SBA; intact soybean agglutinin
T1 sequence (P05046 33-285): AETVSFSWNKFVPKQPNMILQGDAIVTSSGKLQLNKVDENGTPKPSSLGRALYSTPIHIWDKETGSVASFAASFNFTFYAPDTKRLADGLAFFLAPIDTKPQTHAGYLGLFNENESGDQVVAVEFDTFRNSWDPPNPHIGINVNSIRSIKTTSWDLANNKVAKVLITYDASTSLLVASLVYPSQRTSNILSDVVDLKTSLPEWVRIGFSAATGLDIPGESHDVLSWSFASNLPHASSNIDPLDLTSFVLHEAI

B1: trimeric extracellular domain (ECD) of rat macrophage galactose lectin (MGL) (domain or fragment)
chain: AQNSQLRRDLETLRTTLDNTTSNTKAELQALASRGDSLQTGINSLKVEVDDHGQELQAGRGLSQKVASLESTVEKKEQTLRTDLSEITDRVQQLGKDLKTLTCQLASLKNNGSAVACCPLHWMEHEGSCYWFSQSGKPWPEADKYCQLENSNLVVVNSLAEQNFLQTHMGSVVTWIGLTDQNGPWRWVDGTDYEKGFTHWAPKQPDNWYGHGLGGGEDCAHFTSDGRWNDDVCQRPYRWVCEMKLAKDS
notes: extra alanine residue appended at the N-terminus; rat macrophage galactose lectin, extracellular domain from residue 59 to the C-terminus; also called extracellular domain of MGL; source: expressed in bacteria, T7 promoter system
In the case of B1, the “stoichiometry N” value [1] is reported as 3.

B2: monomeric carbohydrate-recognition domain (CRD) from DC-SIGN (domain or fragment, UniProt Q9NNX6 250-404, looked up)
chain: ERLCHPCPWEWTFFQGNCYFMSNSQRNWHDSITACKEVGAQLVVIKSAEEQNFLQLQSSRSNRFTWMGLSDLNQEGTWQWVDGSPLLPSFKQYWNRGEPNNVGEEDCAEFSGNGWNDDKCNLAKFWICKKSAASCSRDEEQFLSPAPATPNPPPA
notes: DC-SIGN, carbohydrate-recognition domain; it calls the CRD monomeric; also called monomeric CRD; dendritic cell-specific intercellular adhesion molecule 3-grabbing nonintegrin CRD
In the case of B2, the Kd (soybean agglutinin) is reported as 4 µM.
